Where two headings read alike, the source gives them in different places.

In experiment [1] the target is T1, recombinant human IL-6 (human, UniProt P05231 30-212). Nature of the experiment: cell-based or functional assay.
The target in experiment [2] is T1, recombinant human IL-6. Nature of the experiment: BIAcore; Example 1 summarises WO 2008/065378; BIAcore; bound at the assay's detection level.
A further experiment concerns the target T2, human FcRn (human, UniProt P55899 24-297; P61769 21-119, limits assumed).
T2 construct: also called huFcRn
Nature of the experiment: BIAcore, pH 6.

The target of the next experiment is T3, cynomolgus FcRn (cynomolgus, UniProt Q8SPV9 24-297; Q8SPW0 21-119, limits assumed).
T3 construct: also called cynoFcRn; cyno FcRn
Nature of the experiment: BIAcore, pH 6.

Experiment [3] addresses endogenous human IL-6 produced by human synovial fibroblasts (human) (UniProt P05231).
Experiment [4] has the same target. Nature of the experiment: cell-based or functional assay.
The target of experiment [5] is T1, recombinant human IL-6. Nature of the experiment: affinity estimated from the TF-1 Cell Proliferation Assay (cell-based, not a direct binding assay); Example 1 summarises WO 2008/065378; estimated from the TF-1 Cell Proliferation Assay, not BIAcore.
The target in experiment [6] is T1, recombinant human IL-6. Nature of the experiment: ELISA, E. coli expressed rhuIL-6 as capture reagent.
Method: ELISA assays were performed according to standard protocols.
The target in experiment [7] is T4, endogenous human IL-6 produced by human synovial fibroblasts (human, UniProt P05231 30-212). Nature of the experiment: cell-based or functional assay.
Experiment [8] addresses T1, recombinant human IL-6. Nature of the experiment: cell-based or functional assay. This is another data set of the same source.
For experiment [9], the target named is T1, recombinant human IL-6. Nature of the experiment: ELISA, E. coli derived recombinant human IL-6 as capture reagent; drawn table 'Avg EC50 (pM)', n = 4.
Experiment [10] addresses T4, endogenous human IL-6 produced by human …. Nature of the experiment: cell-based or functional assay. This is another data set of the same source.

T3 sequence (Q8SPV9 24-297 limits assumed, chain 1 of 2): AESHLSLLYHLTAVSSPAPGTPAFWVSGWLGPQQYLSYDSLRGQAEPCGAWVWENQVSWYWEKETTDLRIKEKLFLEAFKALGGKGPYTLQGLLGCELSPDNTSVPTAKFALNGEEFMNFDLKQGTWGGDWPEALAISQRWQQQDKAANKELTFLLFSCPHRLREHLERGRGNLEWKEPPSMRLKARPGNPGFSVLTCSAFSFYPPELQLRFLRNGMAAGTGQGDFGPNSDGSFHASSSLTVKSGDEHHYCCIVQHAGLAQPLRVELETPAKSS
T3 sequence (Q8SPW0 21-119 limits assumed, chain 2 of 2): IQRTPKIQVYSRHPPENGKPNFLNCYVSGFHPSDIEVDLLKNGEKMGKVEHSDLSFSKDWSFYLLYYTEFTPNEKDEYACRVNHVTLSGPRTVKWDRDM
endogenous human IL-6 produced by human synovial fibroblasts (human), sequence (P05231 30-212): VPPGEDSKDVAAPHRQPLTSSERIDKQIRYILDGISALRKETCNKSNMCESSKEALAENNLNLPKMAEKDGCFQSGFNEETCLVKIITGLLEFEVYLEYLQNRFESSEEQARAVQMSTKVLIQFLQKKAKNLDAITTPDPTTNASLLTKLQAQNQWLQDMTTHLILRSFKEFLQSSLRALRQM
T2 sequence (P55899 24-297 limits assumed, chain 1 of 2): as the sequence (Q8SPV9 24-297 limits assumed, chain 1 of 2) above, with D39N, Q44E, S99G, G189S, N190S, M217L, T269S counted along it
T2 sequence (P61769 21-119 limits assumed, chain 2 of 2): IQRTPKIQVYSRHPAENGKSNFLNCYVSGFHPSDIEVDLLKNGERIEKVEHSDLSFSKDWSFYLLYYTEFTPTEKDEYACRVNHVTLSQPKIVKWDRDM

B1: Antibody 18 (antibody, V domains shown)
VH: EVQLVESGGGLVQPGGSLRLSCAASGFTISSNYMIWVRQAPGKGLEWVSDLYYYAGDTYYADSVKGRFTMSRDISKNTVYLQMNSLRAEDTAVYYCARWADDHPPWIDLWGRGTLVTVSS
VL: DIQMTQSPSTLSASVGDRVTITCRASQGISSWLAWYQQKPGKAPKVLIYKASTLESGVPSRFSGSGSGTEFTLTISSLQPDDFATYYCQQSWLGGSFGQGTKLEIK
notes: Human anti-IL-6 IgG1 with a wild type Fc region; It is the parent of Antibody 18E; also called Ab 18
B1: the “IC50, inhibition of IL-6 induced TF-1 cell proliferation” value in the experiment with recombinant human IL-6 [1] was 0.0045 nM. Also, the Kd is below 0.01 nM in the experiment with recombinant human IL-6 [2], 2610 nM with human FcRn, 1160 nM in the experiment with cynomolgus FcRn and 0.0004 nM in the experiment with recombinant human IL-6 [5]. Also, the IC50, inhibition of endogenous IL-6 induced VEGF release from human synovial fibroblasts in experiment [3] came to 1.3 nM; in experiment [4], 0.0013 nM. Moreover, the EC50 with recombinant human IL-6 [6] amounted to 0.0061 nM.

B2: IL-6 antibody B (antibody, V domains shown)
VH: QSVEESGGRLVTPGTPLTLTCTVSGFSLSAYDMYWVRQAPGKGLEWIGITYGSGKTYYARWAKGRFTISKTSTTVALKITSPTTEDTATYFCARDSGYPGGSSAYNLWGQGTLVTVSS
VL: AAVLTQTPSAVSAAVGGTVTISCQSSQSVTVNNDLAWYQQRPGQPPKLLIYRASNLASRVPSRFSGSGSGTQFTLTISGVQCDDAATYYCLGGYDDDASNAFGGGTEVVVKG
Take B2: the “IC50, inhibition of endogenous IL-6 induced VEGF release from human synovial fibroblasts” value in experiment [7] turned out to be 2.2 nM. For the same molecule, the “IC50, inhibition of IL-6 induced TF-1 cell proliferation” value with recombinant human IL-6 [8] came to 0.0781 nM. For the same molecule, in the experiment with recombinant human IL-6 [9], the EC50 was 0.0141 nM.

B3: IL-6 antibody A (antibody, V domains shown)
VH: QEQLVESGGGLVQPEGSLTLTCIASGWSFSSSHYMCWVRQAPGKGLEWIGCIYTGSGMTYYASWAKGRFTISKTSSTTVTLQMTSLTAADTATYFCARKIGGTDDYGDSLYFSLWGQGTLVTVSS
VL: AQVLTQTPSPVSAAVGGTVTINCQASQSVYNNSKLAWYQQKPGQPPKLLIYKASSLASGVSSRFKGSGSGTQFTLTISGVQCDDAATYYCQHEFSCSSADCVAFGGGTEVVVKG
Turning to B3, the “IC50, inhibition of endogenous IL-6 induced VEGF release from human synovial fibroblasts” value in experiment [7] is 2.8 nM. Further, in the experiment with recombinant human IL-6 [8], the “IC50, inhibition of IL-6 induced TF-1 cell proliferation” value was 0.0059 nM. Besides, the EC50 with recombinant human IL-6 [9] stood at 0.0078 nM.

B4: Antibody 18E (antibody, human IgG1, kappa)
heavy: EVQLVESGGGLVQPGGSLRLSCAASGFTISSNYMIWVRQAPGKGLEWVSDLYYYAGDTYYADSVKGRFTMSRDISKNTVYLQMNSLRAEDTAVYYCARWADDHPPWIDLWGRGTLVTVSSASTKGPSVFPLAPSSKSTSGGTAALGCLVKDYFPEPVTVSWNSGALTSGVHTFPAVLQSSGLYSLSSVVTVPSSSLGTQTYICNVNHKPSNTKVDKRVEPKSCDKTHTCPPCPAPELLGGPSVFLFPPKPKDTLYITREPEVTCVVVDVSHEDPEVKFNWYVDGVEVHNAKTKPREEQYNSTYRVVSVLTVLHQDWLNGKEYKCKVSNKALPAPIEKTISKAKGQPREPQVYTLPPSREEMTKNQVSLTCLVKGFYPSDIAVEWESNGQPENNYKTTPPVLDSDGSFFLYSKLTVDKSRWQQGNVFSCSVMHEALHNHYTQKSLSLSPGK
light: DIQMTQSPSTLSASVGDRVTITCRASQGISSWLAWYQQKPGKAPKVLIYKASTLESGVPSRFSGSGSGTEFTLTISSLQPDDFATYYCQQSWLGGSFGQGTKLEIKRTVAAPSVFIFPPSDEQLKSGTASVVCLLNNFYPREAKVQWKVDNALQSGNSQESVTEQDSKDSTYSLSSTLTLSKADYEKHKVYACEVTHQGLSSPVTKSFNRGEC
notes: Antibody 18 with the M252Y, S254T and T256E substitutions (EU index) in the IgG1 Fc region; Expressed in CHO-K1 cells; also called Ab 18E
On to B4, for which, in the experiment with recombinant human IL-6 [1], the “IC50, inhibition of IL-6 induced TF-1 cell proliferation” value was 0.0052 nM. For the same molecule, the “IC50, inhibition of endogenous IL-6 induced VEGF release from human synovial fibroblasts” value in experiment [10] and in experiment [7] was 0.0012 nM each time. Moreover, the Kd with human FcRn is 226 nM; in the experiment with cynomolgus FcRn it was 365 nM. Moreover, in the experiment with recombinant human IL-6 [6], the EC50 amounted to 0.0065 nM.

Source of the values: patent US20120034212A1 (AstraZeneca / MedImmune, published 2012).
